Source: paper PMC5894356 (Structure (London, England : 1993), 2018)

Target: the molecule itself
Assay: crystal structure

B1: S. cerevisiae 5-aminolevulinic acid synthase (Hem1), PLP-cleaved ALAS 58-548 (enzyme)
chain: not shown
stoichiometry N: 2
